Data published in publication PMC7447434, “Atomic structure of a mitochondrial complex I intermediate from vascular plants” (eLife, 2020).

T1: NU2M (Vigna radiata, UniProt E9KZK9 1-488, S19F | S103F | S104F | P119L | P121S | R123C | H132Y | P143L | S166LL | S221F | …)
T1 construct: NU2M, mitochondrially encoded core PP-module subunit of Vigna radiata complex I; 488 residues; residues 1-487 modelled; 14 TMH; the substitutions are RNA editing sites against the entry, made in the model where the density fitted the edited residue; RNA edits are natural; 'S166LL' is printed so and was read as S166L; also called Nad2 (A. thaliana name)
T1 sequence (looked up): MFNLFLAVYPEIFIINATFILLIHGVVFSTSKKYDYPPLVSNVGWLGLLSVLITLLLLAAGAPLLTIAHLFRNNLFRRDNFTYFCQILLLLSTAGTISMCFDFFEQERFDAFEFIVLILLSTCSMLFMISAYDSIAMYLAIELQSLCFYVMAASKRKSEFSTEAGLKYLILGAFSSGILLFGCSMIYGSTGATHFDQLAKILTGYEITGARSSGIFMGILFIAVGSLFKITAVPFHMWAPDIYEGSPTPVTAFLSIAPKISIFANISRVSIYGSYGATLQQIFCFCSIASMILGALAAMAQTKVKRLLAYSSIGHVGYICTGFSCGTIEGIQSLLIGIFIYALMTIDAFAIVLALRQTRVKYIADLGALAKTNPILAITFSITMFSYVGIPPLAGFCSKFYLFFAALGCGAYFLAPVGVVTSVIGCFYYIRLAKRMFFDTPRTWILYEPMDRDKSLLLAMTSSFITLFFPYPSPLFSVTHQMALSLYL

B1: NDUX1 (natural protein, Vigna radiata, UniProt A0A1S3VI15 1-101, looked up)
chain: MNTDITASTKPEYPVVDRNPPFTKVVGNFSTLDYLRFVTITGVSVTVGYLSGIKPGIRGPSMVTGGLIGVMGGFMYAYQNSAGRLMGFFPNDDEVARHNKK
notes: NDUX1, PP-module accessory subunit of Vigna radiata mitochondrial complex I, named here after Y. lipolytica NUXM; 101 residues; residues 1-100 modelled; 2 TMH; also called homologue of Y. lipolytica NUXM; 20.9 kDa (A. thaliana name)
B2: NDUC2 (natural protein, Vigna radiata, UniProt A0A1S3UPL8 1-81, looked up)
chain: MVLSATTIGALLGLGTQMYSNALRKLPYMRHPWEHVVGMGLGAVFVNQLLKWEAQVEQDLDKMLEKAKAANERRYIDGDDD
notes: NDUC2, membrane arm accessory subunit of Vigna radiata mitochondrial complex I; 81 residues; residues 5-68 modelled; 2 TMH; also called B14.5b (A. thaliana name)
B3: CA1 (natural protein, Vigna radiata, UniProt A0A1S3VT00 1-270, looked up)
chain: MGTLGRAFYAVGFWIRETGQAIDRLGSRLQGNYLFQEQLSRHRPLMNLFDKYPSVHKDAFVAPSASLLGDVHVGPASSIWYGCVLRGDVNGIVIGSGTNIQDNSLVHVAKSNLTGKVLPTIIGDNVTVGHSAVLQGCTVEDEAFIGMGATLLDGVYVEKHAMVAAGALVRQNTRIPYGEVWGGNPAKFLRKLTEDEMAFFSQSALNYSNLAQAHAAENAKELEETEFVKVLHKKFAPRGEEYDSILDGGQETPAKLNLQDNVLLDKAPKA
notes: CA1, gamma-carbonic-anhydrase domain subunit of Vigna radiata mitochondrial complex I; 270 residues; residues 3-222 modelled, 223-233 as poly-Ala; also called carbonic-anhydrase-1 subunit; Gamma-CA 1 (A. thaliana name)

Legend:
Test in all cases: cryo-EM structure; CI* (~800 kDa assembly intermediate) from V. radiata mitochondrial membranes, digitonin-extracted, amphipol A8-35-stabilised, sucrose gradient; 6 mg/ml in 20 mM HEPES, 150 mM NaCl, 1 mM EDTA, 0.1% digitonin, pH 7.8; nominal resolution 3.9 Å; interfaces of the γCA domain listed from the model with PDBePISA
Conditions in all cases: both partners purified
NU2M [1] = target: T1, NU2M
CA1 = target: B3
NU2M [2] = target: T1, NU2M; remark: listed apart in the source

binding result (CA1) | Binder | binding result (NU2M [1]) | binding result (NU2M [2])
binds | B1 | binds | 
binds | B2 | binds | 
 | B3 |  | binds
